Data from article PMC10008561, “Molecular mechanism of biased signaling at the kappa opioid receptor” (Nature Communications, 2023).

Molecular target: T1, BRIL-KOR crystallization construct (human kappa-opioid receptor, residues 1-53 replaced by BRIL, C-terminal … (Homo sapiens, I135L | S324C))
T1 chain: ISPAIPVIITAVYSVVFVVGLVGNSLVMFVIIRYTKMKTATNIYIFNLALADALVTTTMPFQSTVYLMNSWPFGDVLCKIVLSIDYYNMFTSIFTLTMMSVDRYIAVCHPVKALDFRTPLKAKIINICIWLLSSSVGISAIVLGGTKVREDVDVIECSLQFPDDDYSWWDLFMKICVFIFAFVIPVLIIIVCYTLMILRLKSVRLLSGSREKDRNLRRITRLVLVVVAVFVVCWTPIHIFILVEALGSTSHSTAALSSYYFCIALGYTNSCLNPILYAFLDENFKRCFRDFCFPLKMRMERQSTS
Assay: cell-based or functional assay

B1: Nb39 (active-state stabilizing nanobody) (VHH)
VHH: QVQLVESGGGLVRPGGSLRLSCVDSERTSYPMGWFRRAPGKEREFVASITWSGIDPTYADSVADRFTTSRDVANNTLYLQMNSLKHEDTAVYYCAARAPVGQSSSPYDYDYWGQGTQVTVS
increase of the binding affinity of nalfurafine in radioligand competition binding on KOR membranes in the presence of Nb39: 40 fold
